Laboratory results reported in the supplement of paper PMC10567573.

B1: ZNF511 (parent)
chain: EPLPVERDPAAGAAPFRFVARPVR

Variants of: B1
Assay: protein stability index of a GFP-peptide fusion (GPS, HEK-293T) (PSI 1-6); higher = more stable
Details: c terminus: a fixed tail appended
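Also: lentivirally expressed fusions sorted by FACS into six bins by GFP to DsRed ratio, PSI derived from sequencing read proportions per bin multiplied by bin number.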

First: P9K
Second: P9C
The protein stability index of the first is lower: 1.46 for the first, 2.34 for the second.

Going from P9F to P9G, the protein stability index falls from 2.17 to 1.96.

First: P9A
Second: P9R
The protein stability index of the first is higher: 1.72 for the first, 1.54 for the second.

Going from P9N to P9L, the protein stability index rises from 2.24 to 2.42.

Going from P9M to P9H, the protein stability index falls from 2.73 to 2.59.

Compared with P9S, P9D is higher in protein stability index: 2.08 for the first, 2.38 for the second.

Compared with P9T, P9Q is lower in protein stability index: 2.74 for the first, 1.98 for the second.

First: P9W
Second: P9V
The protein stability index of the first is lower: 1.33 for the first, 1.92 for the second.

Compared with P9I, P9Y is lower in protein stability index: 2.34 for the first, 2.12 for the second.

Compared with P9E, V5Y is lower in protein stability index: 2.2 for the first, 2.1 for the second.

Compared with V5E, V5D is higher in protein stability index: 2.17 for the first, 2.54 for the second.

First: V5H
Second: V5I
The protein stability index of the first is lower: 1.96 for the first, 2.46 for the second.

Going from V5K to V5R, the protein stability index rises from 1.77 to 2.85.

First: V5N
Second: V5P
The protein stability index of the first is higher: 2.82 for the first, 2 for the second.

Going from V5F to V5S, the protein stability index rises from 2.12 to 2.56.

First: V5L
Second: V5A
The protein stability index of the first is higher: 2.23 for the first, 2.18 for the second.

Compared with V5C, V5Q is lower in protein stability index: 2.39 for the first, 2.37 for the second.

Compared with V5W, V5M is higher in protein stability index: 2.64 for the first, 2.71 for the second.

Going from V5T to D8N, the protein stability index rises from 1.83 to 3.17.

Compared with D8Q, D8F is higher in protein stability index: 2.12 for the first, 2.57 for the second.

Compared with D8V, D8W is lower in protein stability index: 2.4 for the first, 1.91 for the second.

Compared with D8I, D8T is higher in protein stability index: 2.91 for the first, 2.99 for the second.

Compared with D8S, D8P is higher in protein stability index: 2.36 for the first, 2.4 for the second.

Going from D8H to D8L, the protein stability index falls from 2.25 to 2.22.

First: D8R
Second: D8A
The protein stability index of the first is lower: 2.21 for the first, 2.26 for the second.

First: D8C
Second: D8G
The protein stability index of the first is higher: 2.37 for the first, 1.91 for the second.

Compared with D8M, D8Y is higher in protein stability index: 2.46 for the first, 2.63 for the second.

Compared with D8E, A10Q is lower in protein stability index: 2.13 for the first, 2.11 for the second.

Going from A10K to A10Y, the protein stability index rises from 1.72 to 2.97.

Compared with A10N, A10F is lower in protein stability index: 3.07 for the first, 1.64 for the second.

Going from A10W to A10V, the protein stability index falls from 1.43 to 1.38.

Going from A10L to A10P, the protein stability index falls from 2.71 to 2.41.

Compared with A10R, A10G is lower in protein stability index: 2.55 for the first, 2.17 for the second.

First: A10D
Second: A10S
The protein stability index of the first is higher: 2.46 for the first, 2.23 for the second.

Compared with A10I, A10H is lower in protein stability index: 2.44 for the first, 1.87 for the second.

Compared with A10M, A10T is higher in protein stability index: 2.11 for the first, 2.15 for the second.

First: A10E
Second: A10C
The protein stability index of the first is higher: 2.99 for the first, 1.88 for the second.

Compared with A11G, A11M is lower in protein stability index: 1.83 for the first, 1.71 for the second.

First: A11W
Second: A11F
The protein stability index of the first is lower: 1.98 for the first, 2.02 for the second.

First: A11T
Second: A11Q
The protein stability index of the first is lower: 2.08 for the first, 2.12 for the second.

Going from A11C to A11Y, the protein stability index falls from 2.18 to 1.88.

First: A11H
Second: A11L
The protein stability index of the first is higher: 2.61 for the first, 1.86 for the second.

Going from A11K to A11V, the protein stability index falls from 2.34 to 1.42.

Compared with A11D, A11P is higher in protein stability index: 2.33 for the first, 2.68 for the second.

Going from A11I to A11S, the protein stability index falls from 3.02 to 2.43.

First: A11E
Second: A11R
The protein stability index of the first is higher: 3 for the first, 1.78 for the second.

Compared with A11N, R7W is lower in protein stability index: 1.75 for the first, 1.05 for the second.

Compared with R7F, R7V is higher in protein stability index: 2.1 for the first, 2.42 for the second.

Compared with R7Y, R7D is higher in protein stability index: 1.75 for the first, 2.9 for the second.

Compared with R7N, R7I is higher in protein stability index: 2.32 for the first, 2.91 for the second.

Going from R7E to R7P, the protein stability index falls from 3.03 to 2.22.

First: R7Q
Second: R7C
The protein stability index of the first is higher: 2.65 for the first, 2.06 for the second.

Compared with R7S, R7H is higher in protein stability index: 2.34 for the first, 2.57 for the second.

First: R7T
Second: R7L
The protein stability index of the first is higher: 3 for the first, 2.82 for the second.

Going from R7A to R7K, the protein stability index falls from 2.25 to 2.12.

First: R7M
Second: R7G
The protein stability index of the first is lower: 2.09 for the first, 2.1 for the second.

First: P4D
Second: P4M
The protein stability index of the first is higher: 2.9 for the first, 2.66 for the second.

First: P4R
Second: P4N
The protein stability index of the first is higher: 3.23 for the first, 2.29 for the second.

First: P4K
Second: P4Y
The protein stability index of the first is higher: 2.09 for the first, 1.64 for the second.

Going from P4W to P4E, the protein stability index rises from 1.58 to 2.43.

Compared with P4H, P4C is lower in protein stability index: 2.14 for the first, 1.91 for the second.

Going from P4Q to P4S, the protein stability index rises from 1.99 to 3.43.

Compared with P4F, P4V is lower in protein stability index: 2.52 for the first, 2.49 for the second.

Going from P4T to P4I, the protein stability index rises from 2.8 to 2.9.

Going from P4G to P4A, the protein stability index rises from 2.63 to 2.88.

First: P4L
Second: E6A
The protein stability index of the first is lower: 2.27 for the first, 2.92 for the second.

First: E6S
Second: E6H
The protein stability index of the first is lower: 1.96 for the first, 2.44 for the second.

Compared with E6N, E6P is higher in protein stability index: 2.5 for the first, 3 for the second.

Compared with E6Q, E6L is higher in protein stability index: 2.52 for the first, 2.98 for the second.

Going from E6G to E6M, the protein stability index rises from 2.08 to 2.52.

Compared with E6R, E6C is higher in protein stability index: 3.13 for the first, 3.25 for the second.

Compared with E6T, E6K is lower in protein stability index: 2.6 for the first, 1.99 for the second.

Going from E6D to E6Y, the protein stability index rises from 1.68 to 2.03.

First: E6I
Second: E6W
The protein stability index of the first is higher: 2.34 for the first, 1.56 for the second.

First: E6F
Second: E6V
The protein stability index of the first is lower: 3.14 for the first, 3.22 for the second.

Compared with L3S, L3K is lower in protein stability index: 3.09 for the first, 2.4 for the second.

Compared with L3Q, L3R is higher in protein stability index: 2.64 for the first, 3.45 for the second.

First: L3T
Second: L3Y
The protein stability index of the first is higher: 2.3 for the first, 2.26 for the second.

Going from L3M to L3N, the protein stability index rises from 2.28 to 2.76.

Compared with L3V, L3W is higher in protein stability index: 2.23 for the first, 2.64 for the second.

Compared with G12A, G12D is higher in protein stability index: 2.06 for the first, 2.65 for the second.

Going from G12F to G12I, the protein stability index falls from 2.01 to 1.46.

Going from G12C to G12E, the protein stability index falls from 2.79 to 2.09.

With G12H the protein stability index was 2.64.
